Columns and labels:
[1] = molecular target: T1, 1x human ubiquitin (C-terminal His-tagged) (human, UniProt P0CG48 1-76); experiment: ITC; 18 injections of 2 μl of 300 μM ubiquitin or phosphorylated ubiquitin into 200 μl of 30 μM GST-mRABGEF1 in the cell; 25°C; TBS buffer; single site binding model; conditions: both partners purified
T1 construct: human ubiquitin, the 76-residue mature product (primers from the ATG to the codons of the last two glycines); In pET21a(+) between BamHI and XhoI; also called 1x ubiquitin; 1 × Ub; source: E. coli BL21-CodonPlus(DE3)-RIL, purified (Ni-NTA; for ITC also Superdex 75)

[2] = molecular target: T2, S65 phosphorylated ubiquitin produced in bacterial cells (human, UniProt P0CG48 1-76, S65 phosphorylated); experiment: as above; conditions: both partners purified
T2 construct: human ubiquitin, the 76-residue mature product, from pET21a(+)/1xUb; Same construct as m13, phosphorylated in the bacteria by co-expressed membrane-anchored TcPINK1; also called monomeric phosphorylated ubiquitin; source: Superdex 75)

B1: GST-tagged mouse RABGEF1 (WT) 1-74aa (domain or fragment)
chain: not shown
notes: Expressed with 50 μM ZnCl2 in the medium; also called GST-mRABGEF1 (WT); GST-mRABGEF1 WT; source: E. coli BL21-CodonPlus(DE3)-RIL, purified (glutathione-Sepharose 4B; for ITC also Superdex 75); not shown: GST, N-terminal, kept
- Kd [1]: 2.2 µM
- Kd [2]: 5.6 µM

— publication PMC5780041, “Endosomal Rab cycles regulate Parkin-mediated mitophagy” (eLife, 2018)
